Assay results taken from US7785825B2, “Compositions and methods for dehydration and cyclization of peptides, synthetic compounds, and lantibiotics” (priority 2004, dated 2010).

What was measured:
[1] = tested on: methicillin-resistant Staphylococcus aureus (MRSA); conditions: cited from earlier work
[2] = biological target: His6-LctA (Lactococcus lactis CNRZ 481)
[3] = biological target: LctMutA (Artificial Sequence)
[4] = biological target: MutA (His-tagged mutacin II prepeptide) (Artificial)
[5] = biological target: His6-LctA-T48S (Lactococcus lactis CNRZ 481)
[6] = biological target: LctMutAK (Artificial Sequence)
[7] = biological target: LctRumA (Artificial Sequence)
LctM = LctM (Lactococcus lactis subsp. lactis, UniProt P37609); assay: LctM activity assay: dehydration and cyclization of peptide substrates, read out by MS; type: biochemical, Lactococcus lactis CNRZ 481; conditions: for effect on LctM processing of His6-LctA: ATP analog in place of ATP, EDTA added; for number of dehydrations after incubation with LctM: MALDI-MS / ESI-FTMS of product
From the text: For MALDI MS analysis, 1 microL of the assay sample was mixed with 9 microL of sinapinic acid pre-dissolved in MeCN:H2O (2:1) in 0.1% TFA and 1 microL of the mixture was applied on the MALDI target. MALDI MS calcd. […] ESI-FT-MS for the major product: mass calcd.

L. lactis CNRZ 117 = assay: Bioassay for lantibiotic activity (solid agar diffusion); type: cell-based, Lactococcus lactis; conditions: agar diffusion assay, lacticin 481-sensitive indicator strain L. lactis CNRZ 117
Method: The lyophilized assay product (˜0.1 microg) was redissolved in 6 microL of Millipore water. To the solution, 4 microL of a solution of Lys-C in 100 mM Tris, pH 8.5 (0.4 ng/microL) was added and the mixture was incubated at 37° C. for 3 h. The resulting mixture was checked by MALDI-TOF MS. Three fragments were expected and two were observed: calcd, 2310 ([1-21]), 2591 ([22-44]), 2773 ([45-70]); found, 2593 ([22-44]), 2775 ([45-70]).
Inhibitory activity was assayed by the solid agar medium test. A GM17 agar plate was seeded with the test strain by mixing 100 mL of liquid GM17 agar at 50° C. with 1.5 mL of an overnight culture. After agar solidification, wells were created in the medium and the samples were added to the wells. The activity of the starting peptide, LctM-product, and the product and starting peptide treated with Lys-C were determined using a solid agar diffusion bioassay with indicator strain L. lactis CNRZ 117 (See FIG. 5).
FIG. 5 illustrates a bioassay for lantibiotic activity. Small aliquots of the following samples were added in the wells: (1) His6-LctA (SEQ ID NO:4), (2) His6-LctA treated with Lys-C, (3) His6-LctA modified by LctM, (4) His6-LctA modified by LctM and treated with Lys-C, (5) cell free broth of L. lactis CNRZ 117, (6) cell free broth of L. lactis CNRZ 481 containing lacticin 481, (7) 50 mM Tris buffer, pH 8.5, (8) Lys-C in 50 mM Tris buffer, pH 8.5.

[8] = biological target: T1, protease domain of LctT (GST-Lpd) (Lactococcus lactis subsp. lactis, UniProt P37608); assay: Leader cleavage by the LctT protease domain (GST-Lpd); type: biochemical, Lactococcus lactis CNRZ 481; conditions: MALDI-TOF MS
T1 sequence (P37608 whole entry, looked up): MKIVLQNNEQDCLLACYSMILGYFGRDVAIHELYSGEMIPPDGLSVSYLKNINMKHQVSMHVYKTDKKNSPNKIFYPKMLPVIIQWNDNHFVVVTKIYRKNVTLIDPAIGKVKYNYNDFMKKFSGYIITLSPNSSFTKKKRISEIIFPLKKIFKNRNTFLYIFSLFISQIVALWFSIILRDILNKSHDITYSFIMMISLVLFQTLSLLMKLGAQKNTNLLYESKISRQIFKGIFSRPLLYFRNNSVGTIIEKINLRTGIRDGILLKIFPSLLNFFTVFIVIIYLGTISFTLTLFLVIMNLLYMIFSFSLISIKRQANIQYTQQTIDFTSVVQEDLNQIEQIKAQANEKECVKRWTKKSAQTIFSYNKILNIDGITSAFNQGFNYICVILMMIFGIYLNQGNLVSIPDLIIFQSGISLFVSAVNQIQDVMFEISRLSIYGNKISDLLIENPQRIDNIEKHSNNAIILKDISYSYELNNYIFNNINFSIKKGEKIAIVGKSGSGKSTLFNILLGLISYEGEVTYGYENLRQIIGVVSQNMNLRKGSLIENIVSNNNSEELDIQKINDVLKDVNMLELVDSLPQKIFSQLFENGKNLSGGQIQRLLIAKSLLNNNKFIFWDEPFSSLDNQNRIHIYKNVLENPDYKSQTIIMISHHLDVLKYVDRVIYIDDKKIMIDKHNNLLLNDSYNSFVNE
Method: Cleavage of His-LctA and His-pro-Lacticin. The unmodified His-LctA substrate was either directly incubated with GST-Lpd or first modified by LctM prior to incubation with the protease. Assay mixtures typically contained substrate (50-500 μg), GST-Lpd (35-70 μg) and a buffer consisting of 200 mM NaPi, pH 7.5, 200 mM Na2SO4 and 5 mM DTT. Assays were incubated at 37° C. for 12 h and analyzed by MALDI-TOF MS. Both unmodified and modified His-LctA were substrates for GST-Lpd as determined by MALDI-TOF MS and sensitivity of indicator strain Lactococcus lactis 117 towards the modified substrate after cleavage. See FIG. 83 which illustrates LctT as a bifunctional protein including the proteolytic domain.

Sequence of LctM (P37609 whole entry): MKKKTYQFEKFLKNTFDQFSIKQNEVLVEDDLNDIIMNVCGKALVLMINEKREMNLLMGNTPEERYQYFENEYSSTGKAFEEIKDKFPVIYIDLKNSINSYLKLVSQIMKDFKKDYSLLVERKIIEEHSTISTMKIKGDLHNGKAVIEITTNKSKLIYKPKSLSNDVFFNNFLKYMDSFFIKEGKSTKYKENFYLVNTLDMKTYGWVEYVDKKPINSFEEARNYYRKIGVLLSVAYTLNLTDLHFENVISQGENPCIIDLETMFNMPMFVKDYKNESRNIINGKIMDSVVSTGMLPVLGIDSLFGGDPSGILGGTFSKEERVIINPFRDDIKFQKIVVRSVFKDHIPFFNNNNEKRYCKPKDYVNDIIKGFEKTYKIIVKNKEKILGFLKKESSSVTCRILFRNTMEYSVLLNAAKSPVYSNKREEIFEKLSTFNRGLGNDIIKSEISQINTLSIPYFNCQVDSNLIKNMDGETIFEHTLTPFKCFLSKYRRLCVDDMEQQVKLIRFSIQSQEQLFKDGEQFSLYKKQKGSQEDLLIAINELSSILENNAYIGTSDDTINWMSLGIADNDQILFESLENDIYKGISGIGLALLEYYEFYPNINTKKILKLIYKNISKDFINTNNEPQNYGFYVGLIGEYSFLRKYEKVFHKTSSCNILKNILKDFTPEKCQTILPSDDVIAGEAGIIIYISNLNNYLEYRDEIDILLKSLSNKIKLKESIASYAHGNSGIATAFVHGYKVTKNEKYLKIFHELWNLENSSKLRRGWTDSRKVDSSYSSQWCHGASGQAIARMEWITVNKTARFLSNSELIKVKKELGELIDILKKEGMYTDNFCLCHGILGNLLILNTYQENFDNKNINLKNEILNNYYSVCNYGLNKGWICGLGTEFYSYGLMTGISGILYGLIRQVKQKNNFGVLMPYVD

In the case of mersacidin, the “cytotoxic activity against MRSA” value [1] is listed as “comparable cytotoxic activity”.

Molecule “His6-LctM (lacticin 481 synthetase LctM with N-terminal His6-tag) (enzyme)” has a dehydration and cyclization of the substrate (ESI-FTMS, MS/MS) [2] of over 80%, a dehydration of the substrate [3] of 4 dehydrations and a dehydration of the substrate [4] of 4 dehydrations. For the same molecule, the dehydration of the substrate (MS) [5] was 4 dehydrations, the dehydration of the substrate [6] was 4 dehydrations and the dehydration of the substrate [7] was 4 dehydrations.

In the case of `Nc1ncnc2c1ncn2[C@@H]1O[C@H](COP(=O)(O)OP(=O)(O)CP(=O)(O)O)[C@@H](O)[C@H]1O` [AMP-PCP], the “effect on LctM processing of His6-LctA” value (LctM) is reported as “completely abolished”.

In the case of `Nc1ncnc2c1ncn2[C@@H]1O[C@H](CO[P@](=O)(O)O[P@](=O)(O)O[P@@](=O)(O)S)[C@@H](O)[C@H]1O` [ATP-gamma-S], the “effect on LctM processing of His6-LctA” value (LctM) is reported as “less efficient”.

With `O=C(O)CN(CCN(CC(=O)O)CC(=O)O)CC(=O)O` [EDTA] the “effect on LctM processing of His6-LctA” value (LctM) was “abolished the reaction”.

For `Nc1ncnc2c1ncn2[C@@H]1O[C@H](COP(=O)(O)OP(=O)(O)NP(=O)(O)O)[C@@H](O)[C@H]1O` [AMP-PNP], the “effect on LctM processing of His6-LctA” value (LctM) was “completely abolished”.

B1: His6-LctA (peptide)
peptide: GSSHHHHHHSSGLVPRGSHMKEQNSFNLLQEVTESELDLILGAKGGSGVIHTISHECNMNSWQFVFTCCS
For B1, the “number of dehydrations after incubation with LctM” value (LctM) was “four”, the “substrate converted to M-72 product” value (LctM; treatment with LctM for 1 hour) was “more than 80%” and the “antimicrobial activity (zone of inhibition)” value (L. lactis CNRZ 117) was “No antimicrobial activity was detected”. For the same molecule, the “cleavage of the leader by the LctT protease domain” value (“cleavage of the leader” for short) [8] was “substrates”.

B2: His6-LctA modified by LctM: fully processed product, lacticin 481 fused to its leader peptide (peptide)
peptide: B1 peptide
modifications: not fully specified (residues 52, 54, 61, 67, bridges)
For B2, the “antimicrobial activity (zone of inhibition)” value (L. lactis CNRZ 117) was “No antimicrobial activity was detected” and the “cleavage of the leader” value [8] was “substrates”.

B3: LctMutA: His-tag, LctA leader and mutacin II structural region (peptide)
chain: GSSHHHHHHSSGLVPRGSHMLEMKEQNSFNLLQEVTESELDLILGANRWWQGVVPTVSYECRMNSWQHVFTCC
With B3 the “number of dehydrations after incubation with LctM” value (LctM) was 4 and the “cleavage of the leader” value [8] was “can remove the leader peptide and the His-tag”.
